Source: the supplement of paper PMC9170038

Test system: MS2 coat protein
Experiment: apparent KD of MS2 coat protein; designed switch direction (-1 OFF switch, 1 ON switch): 1; higher = weaker reporter binding
In short: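 The buffer was Tris-HCl pH 7.5 with KCl, MgCl2, BSA, DTT, tRNA and Tween-20. In it, SNAP-549-labelled MS2 coat protein was titrated in doubling steps from 0.7 or 1.5 nM to 3 µM over chip-bound RNA switches transcribed by stalled E. coli RNA polymerase on Illumina chips. Apparent KD is the per-design median over clusters of curve fits to normalised fluorescence.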

[1] = Eterna round: R95, input ligand: FMN 200 uM
[2] = Eterna round: R95, input ligand: microRNA oligo, concentration not stated
[3] = Eterna round: R95, input ligand: none
[4] = input ligand: microRNA oligo, concentration not stated

AAGUAACAUGAGGAUCACCCAUGUGAGGUGAGCGUAGGAUAUCGAGAAGGAAGGGUGGAGCGAGAAGGACGAGGGA [JR_SS1_Sub0101] (puzzle: Same State 1)
apparent KD of MS2 coat protein [1]: 565 nM
apparent KD of MS2 coat protein [2]: 463 nM
apparent KD of MS2 coat protein [3]: 389 nM

GAAUAGUUGAGAGGAUAUCUAUUAUAAAAGGAUAGAGAAGGUUUUAACAUGAGGAUCACCCAUGUAGGACUAUAUAUGUGAAUA [Parity 100 - Jieux - Same State NG 1] (Eterna round: R96, puzzle: Same State NG 1)
apparent KD of MS2 coat protein (input ligand: FMN 200 uM): 16.2 nM
apparent KD of MS2 coat protein [4]: 13.6 nM
apparent KD of MS2 coat protein (input ligand: none): 16.1 nM

UGAAUGAUGUUAGGAUAUACAUGAGGAAUCCUCGUAGAAGGAACAUGACAUGAGGAUCACCCAUGUAGCGCUCCGUAGAGCGCA [JL SSNG1 1.19] (Eterna round: R96, puzzle: Same State NG 1)
apparent KD of MS2 coat protein (input ligand: FMN 200 uM): 210 nM
apparent KD of MS2 coat protein [4]: 30.4 nM
apparent KD of MS2 coat protein (input ligand: none): 146 nM

ACAUGAGACCUAGGAUAUCUUGUACCUACAUGUGACAUGAGGAUCACCCAUGUGGUAAGUAUGAGAGAGAAGGAGGAGAUAUGU [Equivalance 54 - Jieux - Same State NG 2] (Eterna round: R96, puzzle: Same State NG 2)
apparent KD of MS2 coat protein (input ligand: FMN 200 uM): 15.4 nM
apparent KD of MS2 coat protein [4]: 12.3 nM
apparent KD of MS2 coat protein (input ligand: none): 17.6 nM

AAUCGUUUGAUAGGAUAUCGCUAUACAUGAGGAUCACCCAUGUUUACCACGCUGGUUUUUCAUACCGAGAAGGAUUCUGAUGAC [salish99_SSNG02_r04_002] (Eterna round: R96, puzzle: Same State NG 2)
apparent KD of MS2 coat protein (input ligand: FMN 200 uM): 26.2 nM
apparent KD of MS2 coat protein [4]: 22.6 nM
apparent KD of MS2 coat protein (input ligand: none): 29.8 nM

GUGGUCAGACAUGAGGAUCACCCAUGUGGAAUAAAUAAGGAAUAGGAUAUGGAAUAUAGGAUAUACCAGAAGGGUUGGUUGGUG (Eterna round: R96, puzzle: Same State NG 3)
apparent KD of MS2 coat protein [4]: 73.4 nM

GGUGGGUUGCUACCAACACAUGAGGAUCACCCAUGUUUUGGGAAGGAUAUGGUACCUAUUUGGUACCAGAAGGUCCCGUUGGUG [salish99_SSNG3_r04_706] (Eterna round: R96, puzzle: Same State NG 3)
apparent KD of MS2 coat protein (input ligand: FMN 200 uM): 37.6 nM
apparent KD of MS2 coat protein [4]: 40.4 nM
apparent KD of MS2 coat protein (input ligand: none): 63.6 nM

GUAAUACAUGAGGAUCACCCAUGUCAAUGUAGUCGAGGAUAUGGGUAGCUAUGAGGCUUACUAGAAGGCGACGAGC [Same State 1 - Mod of Vinnie Teenbexe v.5] (puzzle: Same State 1)
apparent KD of MS2 coat protein [1]: 28 nM
apparent KD of MS2 coat protein [2]: 176 nM
apparent KD of MS2 coat protein [3]: 359 nM

GUGGCGGGUUGAGGAUAUUGGUUGCCUAUGUUUUACAUGAGGAUCACCCAUGUGGGUUGCGGUUUCGAGAAGGUAGGUUGCUGG [salish99_SSNG2_r04_047] (Eterna round: R96, puzzle: Same State NG 2)
apparent KD of MS2 coat protein (input ligand: FMN 200 uM): 420 nM
apparent KD of MS2 coat protein [4]: 228 nM
apparent KD of MS2 coat protein (input ligand: none): 347 nM

AUUUUUAAUGCAGGAUAUGAUUAACAUGAGGAUCACCCAUGUGGUGUUGUGAGUAAGGAGAGUGAUCAGAAGGGCAUUUUUUCU [JMF's solution 88] (Eterna round: R96, puzzle: Same State NG 2)
apparent KD of MS2 coat protein (input ligand: FMN 200 uM): 340 nM
apparent KD of MS2 coat protein [4]: 391 nM
apparent KD of MS2 coat protein (input ligand: none): 500 nM

AUUAAUAAUCGAGGAUAUCACGUCGAAUAGACGUGAGAAGGCGAUCAUAACAUGAGGAUCACCCAUGUAUUACAUGAAAUUAAU [SSNG1/4-B4] (Eterna round: R96, puzzle: Same State NG 1)
apparent KD of MS2 coat protein (input ligand: FMN 200 uM): 22.4 nM
apparent KD of MS2 coat protein [4]: 20.5 nM
apparent KD of MS2 coat protein (input ligand: none): 38.1 nM
